For 1 molecule, koff results are on record in article PMC12809092 (2025).

Test [1] addresses T1, PLXNA1-LBD, recombinant human plexinA1 ligand-binding domains (human, UniProt Q9UIW2 27-710).
T1 chain: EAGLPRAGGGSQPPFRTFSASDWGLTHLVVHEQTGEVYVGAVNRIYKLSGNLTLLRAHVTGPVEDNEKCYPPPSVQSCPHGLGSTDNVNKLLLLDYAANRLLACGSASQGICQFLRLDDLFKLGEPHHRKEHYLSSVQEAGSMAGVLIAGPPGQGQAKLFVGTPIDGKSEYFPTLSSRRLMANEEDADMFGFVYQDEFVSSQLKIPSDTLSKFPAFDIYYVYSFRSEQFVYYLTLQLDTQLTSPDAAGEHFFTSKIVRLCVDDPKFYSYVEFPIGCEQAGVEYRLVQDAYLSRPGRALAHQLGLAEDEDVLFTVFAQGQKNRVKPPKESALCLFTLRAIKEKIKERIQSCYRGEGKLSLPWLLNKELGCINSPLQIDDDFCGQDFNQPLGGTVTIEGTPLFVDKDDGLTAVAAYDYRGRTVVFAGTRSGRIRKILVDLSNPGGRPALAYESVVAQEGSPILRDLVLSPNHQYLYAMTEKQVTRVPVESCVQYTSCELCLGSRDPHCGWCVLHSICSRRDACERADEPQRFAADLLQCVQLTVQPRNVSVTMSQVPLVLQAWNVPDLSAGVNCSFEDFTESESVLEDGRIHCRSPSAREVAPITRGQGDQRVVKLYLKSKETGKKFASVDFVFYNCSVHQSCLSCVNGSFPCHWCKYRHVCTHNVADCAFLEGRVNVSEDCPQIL
Put plainly: BLI. For orientation: In BLI a coated tip is dipped into the sample, and binding shifts an interference pattern.

In test [2] the target is PLXNA1-ECD, recombinant human plexinA1 full extracellular domains (human, UniProt Q9UIW2 27-1244). In words: BLI.

B1: aPLXNA1-19-43 Fab (Fab, V domains shown)
VH: EVQLQQSGPELVKPGASVKISCKASGYKFTENYMDWVKQSHGESLEWIGDISPDNGDTSYNQKFRDKATLTVDKSSSTAYMELRSLTSEDSAVYYCAQIIYYDYVGYALDYWGQGTSVTVSS
VL: QIVLTQSPAILSASPGEKVTMSCSVSSSITYMHWYQQKPGTSPKRWIYDTSKLASGVPARFSGSGSGTSFSLTISNMEAEDAATYYCHQRSSYPYSFGGGTKLEIK
On to B1, for which the off-rate (koff) (as a rule, the rate constant with which the complex falls apart) was 0.000252 s⁻¹ in test [1] and 0.000111 s⁻¹ in test [2].
